Results: the nanobody polyreactivity screen of Harvey et al. (2022)

Assay: yeast display, Sf9 membrane polyspecificity reagent, FACS + sequencing; frameworks hold sequencing errors
Summary of the method: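 In a synthetic yeast display library (Saccharomyces cerevisiae BJ5465), nanobody expression was induced with galactose for 36–48 hours. FACS gates were set low and high (top ~1%) using anti-HA fluorescence for expression and streptavidin fluorescence for binding of the Sf9 membrane reagent. Each polyreactivity label is drawn from the gate of origin.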

Sequence | polyreactivity (PSR sort gate)
QVQLVESGGGLVQAGGSLLLSGAPSGRTFPYYAMGWYRQAPGKERELVARISSDGSTTYADSVKGRITISRDHAKNTVYLQMNSLKPEDTAVYYSAADVTFAGLKYIFDYWGPGTQVTVSS | low polyreactivity
QVHLVESGGGLVQAGGSLRLSCAASGSIFRGYAMGWYRQAPGRERELVAAISRSGGSTYYADSVKGRFTISRDNAKNTVYLQRNSLKPEDTAGYYCAALLRGRYRMYYWGQGTQVTVSS | high polyreactivity
QVQLVESGGGLVQAGGSLRLSCAASGSIFSDNAMGWYRQAPGKERELVAAITWSGGSTYYADSVKGRFTISRDNAKNTVYLQMNSLKPEDTAVYYCAADGDYYWYYHGTYDYWGQGTQVTVSS | low polyreactivity
QVQLVESGGGLVQAGGSLRLSCAASGRILGYYGMGWYIQAPGKERELVAAITSGGGSTYYADSVKGRFTISRDNAKNTVYLQMNSLKPEDTAVYYCNAVPSQHDEFDYWGQGTQVTVSS | low polyreactivity
QVQLVESGGGLVQAGGSLRLSCAASGRTFRTYVMGWYRQAPGKEREFVAGITWSSGSTRYADSVKGRFTISRDNAKNTVYLQMNSLKPEDTAVYYCAASRVHSYNPGYPRYYYWGQGTQVTVSS | high polyreactivity
QVQLVESGGGLVQAGGSLRLSCAASGFIFTQYAMGWYRQSPGKERELVAGITSSGNTYYADSVKGRFTISRDNAKNTVYLQMNSLKPEDTAVYYCAARSYVRRFDGGYWGQGTQVTVSS | high polyreactivity
QVQLVESGAGLVQAGGSLRLSFAASGRTFVSYDMGWYRQATGKERELVAAITYSGGSSTYYADSVKGRFTISRDNAKNTVYLQMNSLKPEDTAVYYCAVYGGGSRNFGDVGYWGQGTLVTVSS | low polyreactivity
QVQLVESGGGLVQAGGSLRLSCAASASINSNYVMGWNRQAPGKERELVAAITRRGGRTYYADSVKGRFTISRDNAKNTVYLQMNSLKPEDTAVYYCAAERYPEAGSPYGTAEMDYWGQGTQVPVSS | low polyreactivity
QVQLVESGGGLVQAGGSLRLSCAASGSTIKTYATMGWYRQAPGKERELVSAITSGSSTNYADSVKGRFTISRDNAKNNVYLQMNSLKPEATAVYYCAADDYYNWYLGEPGDYWGQGTQVTVSS | low polyreactivity
QFQLVESVGGLVQAGGSLRLSFAASGFNFDYNAMGWYRQAPGKERELVAAISNTGDSTYYADSVKGRFTISRDNAKNTVYLQMNSLQPEDTAVYYCAADSLFDDYWEYDYWGQGTQVTVSS | low polyreactivity
QVQLVESGGGLVQAGGSLRLSCAASGSIFPVYAMGWYRPAPGKERELVAAISWIGGGTYYADSVKGRFTISRDNAKNTVYLQKHSLKPEDTAVYDCAAVPYTSEYDYWGQGTEVTVSS | high polyreactivity
QVQLVESGGGLVQAGGTLRLICAASGRISLRNGMGWYRQAPRKERELVAAITSGSSTDYADSVKGRFTISRDNAKNTVYLQMNSLKPEDTAVYYCAKDLLQSGPGAGRYDYWGQGTQVTVSS | low polyreactivity
QVQLVESGGGLVQAGGSLRLSCAASGRIFVANAMGWYRPAPGKERELVAAISGRGSRTYYADSVKGRFTISRDNAKNTVYLQMNSLKPEDTAVYYCAVRKNRQYTGDYWGQGTQVTVSS | high polyreactivity
QVQLVESGGGLVQAGGSLLFSCAASGHIFRTYAMGWYRQAPGKERELVAAINIGGTTDYADSVKGRFTISRDNAKNTVYLQMNSLKPEDTAVYYCNAYNRFWEYVYWGQGTQVTVSS | low polyreactivity
QVQLVESGGGLVQAGGSLRLSCAASGSIFVDTAMGWYRQAPGKERELVAAINWSGGSTYYADSVKGRFTISRDNAQNTVYLQMNSLKPEDTAVYYCYAARPGQTWDEHSWYEYWGQGTQVTVSS | low polyreactivity
QVQLVESGGGLVQAGGSLRLSCAASGSIFWPYAMGWYRQAPGKERELVAGISRSGGITYYADSVKGRFTISRDNAKNTVYLQMNSLKPEDTAVYYCARYQEWRQEYDYWGQGTQVTVSS | high polyreactivity
QVQLVESGGGLVQAGGSLRLSCAASGFIISVYAMGWYRQAPGKERELVARIDSGGSTYYADSVKGRFTISRDNAKNTVYLQMNSLKPEDTAVYYCATDEGTVGGQQLRPLMDYWGQGTQVTVSS | low polyreactivity
QVQLVESGGGLVQAGGSLRLSCAASGSIFVRNAMGWYRQAPGKERELVAAISGSGGRTYYADSVKGRFTISRDIAKNTVYLQMNSLKPEDTAVYYCARVPSGQLEYDYWGQGTQVTVSS | high polyreactivity
QVQLVESGGGLVQAGGSLRLSCAASGSIFYRYAMGWYRQAPGKERELVAAISTAGSTNYADSVKGRFTISRDNAKNTVYLQINSPKPEDTAVYYCAAKSYRGRTQRSYGYWGQGTQVTVSS | low polyreactivity
QVQLVESGGGLVQAGGSLRLSCAASGRIFATNAMGWYREAPGKERELVATITRSAGRTYYADSVKGRFTISRDNAKNSVYLQMNSLKPEDTAVYYCAASYWDTEPGYREYDYWGQGTQVTVSS | low polyreactivity
QVQLVESGGGLLQAGGSLRLSCAASGSTFGFYALGWFRQAPGKERELVAAISSGGTSTYYADSVKGRFTISRDNAKTTVYLQMNSVIPEDTAVYYCNSDTFQYPSTYDYWGQGTQVTVSS | low polyreactivity
QVQLVESGGGLVQAGGSLRLSCAASGSTFSRYAMGWYRQAPGKERELVAAISRRAGSTYYADSVKGRFTISRDNAKNTVYLQMNSLKPEDTAVYYCAARTWTENRDGDYWGQGTQVTVSS | high polyreactivity

Sequence | polyreactivity (PSR sort gate)
QVQLVESGGGLVQAGGSLRLTCAASARTFVGNAMGWYRQAPGKERELVAVITGSGARTYYADSVKGRFTISRDNAKNTVYLQMNSLKPEDTAVYYCAGSGYSGQYRSYYWGQGTQVTVSS | high polyreactivity
QVQLVESGGGLVQAGGSLRLSCAASGRTFPSNAMGWYRQAPGKEREFVASITYSGGRTYYADSVKGRFTISRDNAKNTVYLQMNSLKPEDTAVYYCATARYRYHYYSWGQGTQVTVSS | high polyreactivity
QVQLVESGGGLVQAGGSLRLSCAASGFIFAYNAMGWYRQAPGKEWELVAAISWSGGSTYYADSVKGRFTISRDNAKNTVYLQMNSLKPEDTAVYYCNKYLRYPFKRYGYWGQGTQVTVSS | high polyreactivity
QVQLVESGGGLVQAGGSLRLSCAASGSTFVRYAMGWYRQAPGKERELVAAISSNGGSTYYADSVKGRFTISRDNAKNSVYLQMNSLKPEDTAVYYCAKSRVRKYYWGQGTQVTVSS | high polyreactivity
QVQLVESGGGLVQAGGSLRLSCAASGSTFSYYRMGWYRQATGTERELVASIDYSGESTYYADSVKGRFTISLDNAKNTVYLQMNSLNPEDTAVYYCAADDYPWNRYEYWGQGTQVTVSS | low polyreactivity
QVQLVESGGGLVQAGGSLRLSCAASGRTFHYYAMGWYRQAPGKERELVAAITRGGNTYYADSVKGRFTISRDNAKNTVYLQMNSLKPEDTAVYYCAKDNHFEAYRYDYWGQGTQVTVSS | low polyreactivity
QVQLVESGGGLVQAGGSLRLSCAASGRIFTRNAMGWYRPAPGKERELVAAISSRGGSTYYADSVKGRFTISRDNAKNTVYLQMNSLKPEDTAVYYCAAGYWATYDYWGQGTQVTVSS | high polyreactivity
QVQLVESGGGLVQAGGSLRLSCAASGRTFYRYAMGCYRQAPGKERELVAAISWRGGSTNYADSVKGRFTISRDNAKNTVYLQMNSLKPEDTAVYYCNAKFFLPATTRYYYWGQGTQVTVSS | high polyreactivity
QVQLVESGGGLVQAGGSLRLSCAASGFTFAYYAMGWYRQAPGKERELVAAISSRGGSTYYADSVKGRFTISRDNAKNTVYLQMNSLKPEDTAVYYCAAEFGLWPYEYGYWGQGTQVTVSS | high polyreactivity
QVQLVESGGGLVQAGGSLRLSCAASGITFGSYAMGRYRQAPGKERELVAAIDTSGDDTYYADSVKGRFTISRDNAKNTVYLQMNSLKPEDTAVYYCAAEFPSAEVDYWGQGTQVTVSS | low polyreactivity
QVQLVESGGGLVQAGGSLRLSCAASGLIFRRYALGWYRQAPGKERELVAVISSGGRTYYADSVKGRFTISRDNAKNTVYLQMNSLKPEDTAVYYCAARTRSYWGTYGSYHYDYWGQGTQVTVSS | high polyreactivity
QVQLVESGGCLVQAGGSLRLSCAASGITFYEYAMGWSRQAPGKERELVAGITWSGGSTYYADSVKGRFTISRDNAKNTVYLEMNSLKPEDTAVYYCAATGAFWYPYDYWGQGTQVTVSS | high polyreactivity
QVQLVESGGGLVQAGGSLRLSCAASGSIFARYVMGWYRQAPGKERELVAAISRGGRTKYADSVKGRFTISRDNAKNTVYLQMNSLKPEDTAVYYCAASGSQPDDYWGQGTQVTVSS | high polyreactivity
QVNLVESGGGLVLAGGSLRLSCAASGRIYRRNTMGWYRPAPGKERELVAAITSSGGSTYADSVKGRFTISRDNAKNTVYLQMNSLKPEDTAVYYCDTYVAYHRGYRTYDHWGQGTQVTVSS | low polyreactivity
QVQLVESGGGLVQAGGSLRLSCAASGFTFYVYARGWYRQAPGKERQLVAAISRSGGSTYYADSVKGSFTISRDNAKNTVYLQMQSLKPEDTAVYYCAVVQRYWYPGIVPYDYWGQGSQVTVSS | high polyreactivity
QVQLVESGGGLVQAGGSLRLSCAASGSIFEWYAMGWYRLAPGKERELVAVFSVRGGSTYYADSVKGRFTMSRENAKNTVYLQMNSLKPEDTAVYYCAADRVAPYYGHKRFYSGGQGTQVTVSS | high polyreactivity
QVQLVESGGGLVQAGGSLRLSCAASGFTFAYYTMGWYRQAPGKERELVAAINWSGGSTYYADSVKGRFTISRDNAKNTVYLQMNSLKPEDTAVYYCAAKSYWWATYEYWGQGTQVTVSS | high polyreactivity
QVQLVESGGGLVQAGGRLRLSCAASGFIFPHYAMGWYRQAPGKDRELVAAITWSGSSTYYADSVKGRFTISRDNAKNTVYLQMNSLKPEDTAVYYCYADYRLWPTSRYRYGYWGQGTQVTVTS | high polyreactivity
QVQLVESGGGLVQAGGSLRLSCAASGRIFYWYAMGWYRQAPGKERELVATINSGGSTTYADSVKGRFTISRDNAKNTVYLQMNSLKPEDTAVYYCARQRTVKKYYYWGQGTQVTVSS | high polyreactivity
QVQLVESGGGLVQAGGSLRLSCAASGRIFYGYAMGWYRQAPGKERELVAGISYRGARTYYADSVKGRFTISRDNAKNTVYLQMNSLKPEDTAVYYCNAVPYYPFAFGALDYWGQGTQVTVSS | high polyreactivity
QVQHVESGGGLVQAGCSLRLSCAASGSIFVIYAMGWYRQAPGKERELVAAIRSTGSSNYADSVKGRFTISRDNAKNTVYLQMNSLKPEDTAVYYCAAYRRRTYAVNIEGGYWGQGTQVTVSS | high polyreactivity
